Source: article PMC4264199, “Peptide Array on Cellulose Support—A Screening Tool to Identify Peptides with Dipeptidyl-Peptidase IV Inhibitory Activity within the Sequence of α-Lactalbumin” (International Journal of Molecular Sciences, 2014)
Ends that are not written are not given here.

Target: T1, dipeptidyl-peptidase IV (DPP-IV) (Homo sapiens, UniProt P27487)
T1 construct: purchased Creative BioMart (Shirley, NY, USA); host or cells: HEK293 human cells
Assay: DPP-IV inhibition assay on SPOT-synthesized peptides (cleaved from cellulose membrane)
Type: biochemical
Settings: peptides cleaved from cellulose membrane, concentration not known (semi-quantitative); averages of four determinations from two experiments
Description: Recombinant human dipeptidyl-peptidase IV (DPP-IV, EC 3.4.14.5, expressed in HEK293 human cells, >95% purity, activity >5500 pmoles Gly–Pro–7-amido-4-methylcoumarin/min/µg) was purchased from Creative BioMart (Shirley, NY, USA) while polyclonal goat DPP-IV antibody and polyclonal donkey anti-goat secondary antibody conjugated to horseradish peroxidase were obtained from R&D Systems (Minneapolis, MN, USA). Pierce™ ECL western blotting substrate and protein-free (TBS) blocking buffer were from Thermo Scientific (Rockford, IL, USA). Gly–Pro–p-nitroanilide (H-Gly–Pro–p-NA∙HCl) was purchased from Bachem Americas (Torrance, CA, USA). Synthesized peptides (≥95% purity) were prepared and purified by GL Biochem (Shanghai) Ltd. (Shanghai, China).
Peptide arrays of deca-peptides spanning the entire α-lactalbumin sequence with a frame shift of one amino acid between successive sequences were prepared by Kinexus Bioinformatics Corporation (Vancouver, BC, Canada). The peptides were synthesized from the C-terminal amino acid using the SPOT technology consisting of the stepwise coupling of the Fmoc-protected amino acids and cleavage of the side chain protection groups. The α-lactalbumin-derived peptides were synthesized on trioxatridecanediamine (TOTD) and β-alanine-modified Whatman 540 cellulose membranes for the binding and inhibition assays, respectively. For the inhibition assay, the peptides were synthesized in large dots (5–7 mm in diameter) and the quality of the synthesis was verified by HPLC analysis of quality controls spots included on the membranes.
In order to determine the effect of the SPOT-synthesized peptides on the activity of the DPP-IV enzyme, the peptides were first cleaved from the cellulose support by incubating the membranes with gaseous ammonia overnight. Peptide spots (5 mm in diameter) were then punched out using a single-hole punch and transferred into microcentrifuge tubes containing 150 µL of acetonitrile (50% in 100 mM Tris–HCl buffer pH 8.0). The peptide solution (50 µL) was pipetted into a 96-well microplate with 35 µL of the chromogenic substrate Gly–Pro–p-NA (0.29 mM in 100 mM Tris–HCl buffer pH 8.0). The mixture was pre-incubated for 10 min at 37 °C, whereupon 15 µL of DPP-IV (25 mU/mL) was added and the enzymatic reaction was carried out for 30 min at 37 °C. The reaction was then terminated by addition of 100 µL of 1 M sodium acetate buffer pH 4.0 and the absorbance of the released p-nitroaniline was measured at 405 nm using a Tecan Infinite® 200 Pro microplate reader (ESBE Scientific, Markham, ON, Canada). Positive and negative controls (DPP-IV activity with no inhibitor and no DPP-IV activity, respectively) were prepared using punched peptide-free cellulose spots from the same membrane used for peptide synthesis, and adding Tris-HCl buffer in place of the sample and in place of the sample and enzyme solution, respectively.
One unit of DPP-IV was defined as the concentration of enzyme that releases 1 µmol per min of p-nitroaniline from Gly–Pro–p-NA (100 µM) at 37 °C and pH 8.0.

T1 sequence (P27487 whole entry): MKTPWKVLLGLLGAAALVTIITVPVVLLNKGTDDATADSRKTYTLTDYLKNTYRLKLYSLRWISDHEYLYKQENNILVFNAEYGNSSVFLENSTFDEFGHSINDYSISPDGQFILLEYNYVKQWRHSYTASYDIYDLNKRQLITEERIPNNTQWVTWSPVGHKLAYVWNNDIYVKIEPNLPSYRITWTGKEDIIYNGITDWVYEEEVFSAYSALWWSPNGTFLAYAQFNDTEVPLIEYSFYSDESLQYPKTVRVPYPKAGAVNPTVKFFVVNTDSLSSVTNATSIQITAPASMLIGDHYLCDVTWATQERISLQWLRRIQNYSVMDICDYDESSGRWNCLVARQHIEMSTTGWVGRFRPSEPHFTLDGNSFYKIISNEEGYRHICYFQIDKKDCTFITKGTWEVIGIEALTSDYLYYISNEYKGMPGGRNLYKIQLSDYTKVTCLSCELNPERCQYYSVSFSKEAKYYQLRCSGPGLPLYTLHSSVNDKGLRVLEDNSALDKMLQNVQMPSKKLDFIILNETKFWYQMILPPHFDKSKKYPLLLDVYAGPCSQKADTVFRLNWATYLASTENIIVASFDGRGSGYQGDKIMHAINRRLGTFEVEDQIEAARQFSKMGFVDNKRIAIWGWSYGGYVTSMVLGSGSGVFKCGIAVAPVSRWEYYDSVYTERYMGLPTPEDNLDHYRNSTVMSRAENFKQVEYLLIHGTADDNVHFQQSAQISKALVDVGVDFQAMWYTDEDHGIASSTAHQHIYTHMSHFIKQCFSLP

Substance	Percent inhibition of DPP-IV activity, SPOT-synthesized deca-peptides [%]
HKALCSEKLD [J8]	20
NDSTEYGLFQ [E1]	14
KDDQNPHSSN [F7]	16
IWCKDDQNPH [F4]	21
RELKDLKGYG [A10]	14
G9: α-lactalbumin-derived deca-peptide, residues 75–84 (Table S1) (ISCDKFLDDD; UniProt P00711 94-103, looked up, fragment)	18
NNKIWCKDDQ [F1]	22
B1: α-lactalbumin-derived deca-peptide, residues 12–21 (Table S1) (LKDLKGYGGV; UniProt P00711 31-40, looked up, fragment)	11
B3: α-lactalbumin-derived deca-peptide, residues 14–23 (Table S1) (DIDGYGGIAL; UniProt P00709 33-42, looked up, fragment)	13
FQINNKIWCK [E9]	20
DDQNPHSSNI [F8]	15
G5: α-lactalbumin-derived deca-peptide, residues 71–80 (Table S1) (NICNISCDKF; UniProt P00711 90-99, looked up, fragment)	25
LFQINNKIWC [E8]	13
G7: α-lactalbumin-derived deca-peptide, residues 73–82 (Table S1) (CNISCDKFLD; UniProt P00711 92-101, looked up, fragment)	17
H2: α-lactalbumin-derived deca-peptide, residues 79–88 (Table S1) (KFLDDDLTDD; UniProt P00711 98-107, looked up, fragment)	18
A3: α-lactalbumin-derived deca-peptide, residues 3–12 (Table S1) (FTKCELSQLL; UniProt P00709 22-31, looked up, fragment)	20
C6: α-lactalbumin-derived deca-peptide, residues 28–37 (Table S1) (CTTFHTSGYD; UniProt P00711 47-56, looked up, fragment)	10
C7: α-lactalbumin-derived deca-peptide, residues 29–38 (Table S1) (TTFHTSGYDT; UniProt P00711 48-57, looked up, fragment)	5
A7: α-lactalbumin-derived deca-peptide, residues 7–16 (Table S1) (EVFRELKDLK; UniProt P00711 26-35, looked up, fragment)	18
J3: α-lactalbumin-derived deca-peptide, residues 102–111 (Table S1) (DYWLAHKALC; UniProt P00709 121-130, looked up, fragment)	15
EYGLFQINNK [E5]	10
NNDSTEYGLF [D11, NNDSTEYGLF]	11
A2: α-lactalbumin-derived deca-peptide, residues 2–11 (Table S1) (QFTKCELSQL; UniProt P00709 21-30, looked up, fragment)	16

Substance	Percent inhibition of DPP-IV activity, SPOT-synthesized deca-peptides [%]
A4: α-lactalbumin-derived deca-peptide, residues 4–13 (Table S1) (TKCELSQLLK; UniProt P00709 23-32, looked up, fragment)	20
QNNDSTEYGL [D10, QNNDSTEYGL]	14
H10: α-lactalbumin-derived deca-peptide, residues 87–96 (Table S1) (DDIMCVKKIL; UniProt P00711 106-115, looked up, fragment)	20
I10: α-lactalbumin-derived deca-peptide, residues 98–107 (Table S1) (KVGINYWLAH; UniProt P00711 117-126, looked up, fragment)	22
NPHSSNICNI [F11, NPHSSNICNI]	15
ALCSEKLDQW [J10]	21
G1: α-lactalbumin-derived deca-peptide, residues 67–76 (Table S1) (PHSSNICNIS; UniProt P00711 86-95, looked up, fragment)	11
B5: α-lactalbumin-derived deca-peptide, residues 16–25 (Table S1) (KGYGGVSLPE; UniProt P00711 35-44, looked up, fragment)	11
H7: α-lactalbumin-derived deca-peptide, residues 84–93 (Table S1) (DLTDDIMCVK; UniProt P00711 103-112, looked up, fragment)	25
DSTEYGLFQI [E2]	14
EKLDQWLCEK [K3]	24
H1: α-lactalbumin-derived deca-peptide, residues 78–87 (Table S1) (DKFLDDDLTD; UniProt P00711 97-106, looked up, fragment)	19
H4: α-lactalbumin-derived deca-peptide, residues 81–90 (Table S1) (LDDDLTDDIM; UniProt P00711 100-109, looked up, fragment)	21
C5: α-lactalbumin-derived deca-peptide, residues 27–36 (Table S1) (ICTMFHTSGY; UniProt P00709 46-55, looked up, fragment)	16
A6: α-lactalbumin-derived deca-peptide, residues 6–15 (Table S1) (CEVFRELKDL; UniProt P00711 25-34, looked up, fragment)	16
C4: α-lactalbumin-derived deca-peptide, residues 26–35 (Table S1) (WVCTTFHTSG; UniProt P00711 45-54, looked up, fragment)	26
J5: α-lactalbumin-derived deca-peptide, residues 104–113 (Table S1) (WLAHKALCSE; UniProt P00711 123-132, looked up, fragment)	16
QINNKIWCKD [E10, QINNKIWCKD]	6
NKIWCKDDQN [F2]	17
VSLPEWVCTT [B10]	15
D2: α-lactalbumin-derived deca-peptide, residues 35–44 (Table S1) (GYDTQAIVQN; UniProt P00711 54-63, looked up, fragment)	9
KLDQWLCEKL [K4]	19
